The DeepSol protein solubility set

Experiment: soluble on expression in E. coli; label from the status in PepcDB or PDB records

Sequence	soluble on expression in E. coli
DNYVGGIPLTSAHSGTVSGGVYCDSYYGMGDQEAKASNTIEKTFTVPDNANVEWAMLLTNVYCGHMQNNYQGKAKVDFNGKNLGTETLNVPYTYSYNGGNGHVQVNDHVNRVTSDYMMYYDVTGLVKAGKNTAVVKTDPLDSSFDGRIRLVTLVVAYNDGSKKTIWYQVNRGHDADSYYSDDEMNENYIGSTAFQAALPEGSSLTDSKLTLVYQASSDGAYAFNGNALSSGTPQGTFSGSNTWDVKDSLKSSGTNTLTYDRTASFYKSVLGILTAEYTTSSSGDSTDDTPADNTTDNGSAGDTTDDISSDNTTNDTSSDNTTSDVPAGNTTNDTPADNTTDAKFSADLGVQAIKVSHNSAAKAWKNLVNTVNVTVINNGPEKAGSFALELYSEGSLLESKPINGLANGATEAVEFVWKPEDAKNYTLRAVVVPGSTINDANATNNELSKTQEVMHNGYIGDKPLETYLHGTVKGNIIYDYGNSSYVKVSSGDVYTAGHSLSLPEGAIVKYARLYNFWTWSATGSSGVIPSMSLDFAGSSLTPEAEYADQKGWGQYDYPTGTWAYNVTGLVSGSGNYITTVKNTNSDAENSFCIDGIALLVVYEDASGKETQYWINEGCDAVSTMSSSGGLTPDEATVKIAFAGDSIDLGNVDNARLWTTVQSGGHEGIALKFNEMSISGVYDSTPSSNLDIDEARDVTSYLLSQNNEAQIIAPSVTDNSGDYMIPSSAILAVSYKSETTDDTNITDDTNVTDDTNVTDGTNVTDDTNVTDGTNVTNDTNVTNDTNVTNDTNVTNDTNVTNDTNVTNDTNVTDDTNVTDGTNVTDGTNVTIDTNVTIDTNVTIDTNVTDNTNVTDDTNMKDDTNVTLKVNIIPVISLTVSPDSLDFGTVSPGTPSESLPLALKNNGGISIKVTAEVHDQENGPFATGLLLDQNIWSNYSKVLAAESAETSQAQLDLPL	not soluble
DQLYALFDAFFDEDLSQSPEQATSLGLDTGKHADARSRLSDRSTAAWLRDRAEPAERIARLKTIDRKALSGDDAINYDTALFNYEARQGTSRFDFGDGARPFVLTQFYGSYISTPSFLDGRHKIASAADADAYLGRMKAFATVLDQETQRAGADAAKGVIPADFIVDKAIAQLQQFRSLPVEKNVLVASAARRAKAYGDYDAKAAAILTGEIHPALDRQIAALQAMRAKAVHDAGIGRLKDGDAFYAALLKIYTTTNKTPEEVHRLGLEEGAEIQARMDEILKKRGLTQGTVGQRMARLNTMPGQVFANTDEGRAELLAYCTERLAKLQPLLPQWFGVMPKTPVVVRRVPAYTEAGSAGAYYERPALDGSRPGAVYINLRDTAERPRWSLATLMHHEGAPGHHFQLALVAESNLPKLRQNMGFSANTEGWALYAEQVAMEMGIYDDGDDLGLLGMYQARLFRASRCVVDTGIHAKGWSREKAIAYMIETGGDPEVRVSREVERYCANPGQACSYKVGHTVWAALRERTKQRLGSKFDIKRFHDTALLVGPAPLTVLEGVLDRWQ	not soluble
DRPFKVGDWIRSPDRQIEGTVERIGWRMTSIRTFDKRPLYVPNSVFSNIVVENPSRMLNRRIYEVVGLRYDDADKVPEIITAVREMLKNHKDIDTRQT	not soluble
DSDWEDIHYAYFSAICQARKNVYIETPYFIPDESLLKAIKSAALSGVDVRIIFPKIADHKIVNIASYSYFEEILRAGGKVYLYNKGFIHSKVVIIDDKIASAGTANMDLRSFMLNFEVNAFIYDEEVIRVMTDDFFEDLSYCEELNLEVFKNR	not soluble
DTDMGLTRRLPPLSPNKEKQPDVEINDRNIMRILVNKNDEIILLKKGATGSQDQIIPVKLSDLRRITKEFIANPTNRADLPEKEKRE	not soluble
DYKDDDDKVKLYKTNKYGTLYKSESASFTANTDIITRLTGPFRSMPQSGVLRKGLTIKYDEVMKQDGHVWVGYNTNSGKRVYLPVRTWNESTGELGPLWGTIK	soluble
EAEERQRNMINKTHVGLLLIDGQGRIEEINPMAKRYFSLSDSMVRQLQAWSLFDTGNPNATVPLLLKNLTEHQELADITNVETVARRSDGSLFPVLFSLIAVSWKDRRHYLVTLIDIS	not soluble
EAISLSFEQRGQRRAILRDLSLGLAKGESLVVLGPSGCGKSTLLNILAGFQKPDQGRVQIDGRTLEGPGGERGVVFQDDALMPWLNALDNVALGLRIRGLGKAERTARARQVLQLVGLQEYAEQSVAQLSGGQRQRLGLARALAVEPDFLLLDEPFGALDALTRERMQVLLLDLWKQTGKGLFLITHSVDEALFLATDLVVMDGPPARIVKRLPVDFARRYAAGETVRSIKADPEFGRLRQALLDEFLDVAEA	not soluble
EALYVAGYLALYSKDEGELNITPEIVRSALPPTSKIPINIDHRKDCVVGEVIAIIEDIRGPFFLGIVRCPQLHAVLFEAAHSNFFGNRDSVLSPLERALYLVTNYLPSVSLSSKRLSPNEIPDGNFFTHVALCVVGRRVGTVVNYDCTPESSIEPFRVLSMESKARLLSLVKDYAGLNKVWKVSEDKLAKVLLSTAVNNMLLRDRWDVVAKRRREAGIMGH	soluble
EDFAKSIQDFIENGKTLEDFRKDFDKIVAKHGWQYNGGRNWRSRIIYETNLRSSYQAGRYAQLQELKETMPYWEYVHNDAVTYPRVEHMHWDGLILRHDDPWWKTHFPINAWGCQCTVI	not soluble
EDKYTDKYDNINLDEILANKRLLVAYVNCVMERGKCSPEGKELKEHLQDAIENGCKKCTENQEKGAYRVIEHLIKNEIEIWRELTAKYDPTGNWRKKYEDRAKAAGIVIPEE	soluble
EEKYVTVQPYTSQSKDEIGFEKGVTVEVIRKNLEGWWYIRYLGKEGWAPASYLKKAKD	soluble
EEPSSNEIHIGSLVIFPDAYVVSKRDETIELTHREFELLHYLAKHIGQVMTREHLLQTVWGYDYFGDVRTVDVTVRRLREKIEDNPSHPNWIVTRRGVGYYLRNPEQD	soluble
EFGYSEMSAIGALIKALPESCALHLANSSVIRYAQLYQVPSTIEVCCNRGTSGIEGSLSTAVGYAAGSDKLNFIVIGDLSFFYDMNALWNINVRPNLRILLLNNGGGEIFHTLPGLDMSGTSHKYITAVHKTSAKGWAEERGFLYQRVENEEQLAEAMKTFTQPEAMEQPVLMEVFSN	not soluble
EFVINPNGKSEVCILHEYMQRVLKVRPVYNFFECENPSEPFGASVTIDGVTYGSGTASSKKLAKNKAARATLEILIPDFVKQTSE	soluble
EGNITTVYFRSRDITAQKIAEKVLLDNERKLKTVYENSIQFLTVLDLDRKFIWFNKNARDRSPAVFGKDLIVGEVAESYIAKEYRTGFVENFNKAVAGETITYTRKYALNNAPFFLELSLAPVYNNDNTVVGVALTGIN	not soluble

Sequence	soluble on expression in E. coli
EGYEQDFAVLTAEITSKIARVPRLPPDEKKQMVANVEKQLEEARELLEQMDLEVREIPPQSRGMYSNRMRSYKQEMGKLETDFKRSRIA	soluble
EKDTIAAEHKQEASVLLNLHRNKINYLIGETMARMTSLSIAIDRPVDIKKMQSILEKTFDSEPRFSGLYFLNAKGDVTASTTELKTKVNLADRSFFIKAKETKKTVISDSYSSRITGQPIFTICVPVLDSKRNVTDYLVAAIQIDYLKNLINLLSPDVYIEVVNQDGKMIFASGQASHAEDQKPVSGYLDDISWNMKVYPNPVTIEELSKS	not soluble
EKRVRRTRSLVEVLNVDPETGDLGINEIFNWYPSEDGFLKVGDSHIMQEIMHVRGWDSGQLRGEMENRRKILTYMYEKNMRSYIQVSLVVQAYQSYPKMVMEAIENNILQGMIQDMVA	not soluble
ELLKSGKAKDRFEGEENAPVTIVEYASLTCVHCAHFYNDVLPQIRKKYIKTGKVKLIFRDFAFDSRATAGFMLARCAPEDRYFPLIEVLFQKQSEWVWARDAVTPLKKIGLMAGFTDESFNACLKNQSILDEVNASFERGKELGVNATPTFFINGNKYEGAMSVEAFFSVIDSFLKN	not soluble
ELQVIQPEKSVSVAAGESATLRCAMTSLIPVGPIMWFRGAGAGRELIYNQKEGHFPRVTTVSELTKRNNLDFSISISNITPADAGTYYCVKFRKGSPDDVEFKSGAGTELSVRAKPSAPVVSG	soluble
ENAFKRRRCGVCEVCQQPECGKCKACKDMVKFGGSGRSKQACQERRCPN	soluble
ENGRLVELPDNDKSDALQFLATILEAVPSIPAGSNIVEIVLEHEKNSNTSLGFGWACPHARVNFDGDLCCAIGWSPAGIDYGIAGEPLVRLVVMFFVPENQRNTYLKEVSTLARVLKSNPEFQNLEPIGDLDQVRNTLLDMTHQAMSE	not soluble
ENSHNKARTSPYPGSKVERSQVPNEKVGWLVEWQDYKPVEYTAVSVLAGPRWADPQISESNFSPKFNEKDGHVERKSKNGLYEIENGRPRNPAGRTGLVGRGLLGRWGPNHAADPIITRWKRDSSGNKIMHPVSGKHILQFVAIKRKDCGEWAIPGGMVDPGEKISATLKREFGEEALNSLQKTSAEKREIEEKLHKLFSQDHLVIYKGYVDDPRNTDNAWMETEAVNYHDETGEIMDNLMLEAGDDAGKVKWVDINDKLKLYASHSQFIKLVAEKRDAHWSEDSEADCHAL	soluble
EQIVAAYDNSLLYTDHFLVRTIGMLRDMSDYDTAMIYLSDHGESLGEKGLYLHGMPYAIAPVEQTRVPMVIWFSKQFVQSRQIDLNCVHQRARQYADHDNLFSSVLGLMQVKTALYERPHDLFATCEK	not soluble
ERFAREPMAAGHRMWQMAGLKAQRAQTDVNNKKAAFDAAAKEKSDADVALSSALERRKQKENKEKDAKAKLDKESKRNKPGKATGKGKPVNNKWLNNAGKDLGSPVPDRIANKLRDKEFKSFDDFRKKFWEEVSKDPELSKQFSRNNNDRMKVGKAPKTRTQDVSGKRTSFELHHEKPISQNGGVYDMDNISVVTPKRHIDIHRGK	soluble
EVQDVNDSSWKEFVLESEVPVMVDFWAPWCGPCKLIAPVIDELAKEYSGKIAVYKLNTDEAPGIATQYNIRSIPTVLFFKNGERKESIIGAVPKSTLTDSIEKYL	soluble
EVQLQQSGPELVKPGASVKISCKASGYSFTGHLLNWVKQSHGKNLEWIGLVHPHNGAITYNQKFKDKATLTVDRSSTTAYIELVRLTSNDSAVYYCAREDFRYHYSMDYWGQGTSVTVSSAKTTPPSVYPLAPVCGDTTGSSVTLGCLVKGYFPEPVTLTWNSGSLSSGVHTFPAVLQSDLYTLSSSVTVTSSTWPSQSVTCNVAHPASSTKVDKKIVPK	soluble
EVVEDVLTNAIENGSSIQDIELTLKDMPQFDRERARTTAITEVLAASSAAQHESYAQSPAVKKKKWRHSGGKKNNPRENHIDLDGTVIGVDEEFQIPGSSETCMFPRDPKLSTRERVNCHCVLS	not soluble
FAADLNSNLNLFYTPSEIVNGKTDTGVKPEAGQRIRVGGMVTVGSMVRDPNSLHVQFAVHDSLGGEILVTYDDLLPDLFREGQGIVAQGVLGEDGKLAATEVLAKHDENYMPPEVAEAMGQKHEKLDYSQQKSATQ	soluble
FDGIFHTVKLLEPIQQSNADPAASFALFQQKFPNLKRVANSTLNTFDVYNLLSGWKSSLTAYLNQVLALQQRIKAADQIFPNQKETLPKDENPNIFEVLGAYGGKGFFPTLGSNGLHLPPQLFQFFRDFQLSSFTIKDFEVALVSEPDIVQHDKVRYAFQVQ	not soluble
FFFTVAFLLVFSIAGLVEILPDFAKASRPTENLKPYSMLETAGRQLYIKESCNACHSQLVRPFKSETDRYGAYSLSGEYAYDRPFLWGSKRTGPDLHRVGDYRTTDWHENHMMDPTSVVPGSIMPAYKHMFKNAADIETAYAEAYTNKVVFGVPYDQPSGIKLGSFEEAKAAMFEEAKLIVEDMKNQDVKDALARGEIKEIVALIAYMNSLGQ	not soluble
